From paper PMC10140304, “Flagellar brake protein YcgR interacts with motor proteins MotA and FliG to regulate the flagellar rotation speed and direction” (Frontiers in Microbiology, 2023)
Positions count from the first letter of the chain named. Numbers in names are those of the source.

T1: mYPet-YcgR-mCyPet (YcgR-biosensor), wild-type E. coli YcgR (E. coli MG1655), P76010
T1 chain: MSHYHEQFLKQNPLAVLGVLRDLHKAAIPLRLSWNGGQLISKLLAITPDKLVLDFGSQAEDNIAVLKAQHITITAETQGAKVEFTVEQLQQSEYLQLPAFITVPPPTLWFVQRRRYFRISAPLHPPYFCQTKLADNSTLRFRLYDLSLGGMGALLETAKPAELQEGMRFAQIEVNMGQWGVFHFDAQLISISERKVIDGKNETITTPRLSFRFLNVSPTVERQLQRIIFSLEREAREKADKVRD

T2: FliG (E. coli MG1655, UniProt P0ABZ1 1-331)
T2 construct: Flagellar motor switch (rotor) protein FliG, E. coli MG1655; also called individual FliG; rotor protein FliG; source: E. coli BL21 (DE3), purified following Hou et al., 2020
T2 sequence (looked up): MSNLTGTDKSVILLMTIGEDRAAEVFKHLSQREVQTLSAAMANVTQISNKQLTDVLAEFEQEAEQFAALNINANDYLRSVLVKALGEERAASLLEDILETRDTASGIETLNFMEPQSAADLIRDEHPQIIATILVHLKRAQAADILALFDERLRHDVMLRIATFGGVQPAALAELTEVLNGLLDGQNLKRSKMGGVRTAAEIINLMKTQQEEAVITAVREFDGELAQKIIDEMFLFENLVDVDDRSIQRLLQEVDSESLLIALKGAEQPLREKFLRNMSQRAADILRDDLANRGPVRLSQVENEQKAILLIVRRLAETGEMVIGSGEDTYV

B1: MotAc, cytoplasmic domain of MotA (residues 70-170 of MotA) (domain or fragment, E. coli MG1655, UniProt P09348 70-170, looked up)
chain: YTKAMYMDLLALLYRLMAKSRQMGMFSLERDIENPRESEIFASYPRILADSVMLDFIVDYLRLIISGHMNTFEIEALMDEEIETHESEAEVPANSLALVGD
notes: Flagellar stator protein MotA, E. coli MG1655, cytoplasmic domain, residues 70-170; source: E. coli BL21 (DE3), purified following Hou et al., 2020
B2: mYPet-YcgR(Q38A/D54A/N62A)-mCyPet mutant biosensor (natural protein, E. coli MG1655, UniProt P76010 1-244, looked up)
chain: T1 chain with Q38A, D54A, N62A
notes: Flagellar brake protein YcgR, E. coli MG1655, triple mutant Q38A/D54A/N62A, between YPet (A206K) and CyPet (A206K); Printed both as QDN/AAA and QND/AAA; also called QDN/AAA; QND/AAA biosensor; source: E. coli BL21 (DE3), purified following Hou et al., 2020; not shown: mYPet (YPet A206K), N-terminal, kept; mCyPet (CyPet A206K), C-terminal, kept
B3: mYPet-YcgR-mCyPet (YcgR-biosensor), wild-type E. coli YcgR (natural protein, E. coli MG1655, UniProt P76010 1-244, looked up)
chain: T1 chain
notes: Flagellar brake protein YcgR, E. coli MG1655, cloned between YPet (A206K) and CyPet (A206K) in an engineered pET15b; YFP and CFP report FRET within one chain; also called YcgR-FRET; FRET-based YcgR biosensor; source: E. coli BL21 (DE3), purified following Hou et al., 2020; not shown: mYPet (YPet A206K), N-terminal, kept; mCyPet (CyPet A206K), C-terminal, kept
B4: mYPet-YcgR(D54A)-mCyPet mutant biosensor (natural protein, E. coli MG1655, UniProt P76010 1-244, looked up)
chain: T1 chain with D54A
notes: Flagellar brake protein YcgR, E. coli MG1655, mutant D54A, between YPet (A206K) and CyPet (A206K); also called YcgR biosensor mutant D54A; source: E. coli BL21 (DE3), purified following Hou et al., 2020; not shown: mYPet (YPet A206K), N-terminal, kept; mCyPet (CyPet A206K), C-terminal, kept

How the values were obtained:
[1] = target: T1, mYPet-YcgR-mCyPet (YcgR-biosensor), …; assay: FRET or BRET; in vitro, intramolecular FRET of 1.5 uM YcgR biosensor (mYPet-YcgR-mCyPet) titrated with 0-500 uM motor protein, without c-di-GMP; 25 C, SEC buffer (20 mM HEPES pH 7.5, 150 mM NaCl, 10% glycerol); FRET/CFP ratio fitted to a logistic equation; conditions: remark: other sources report otherwise
[2] = target: B2; assay: as above; conditions: both partners purified
[3] = target: B4; assay: as above; conditions: both partners purified
[4] = target: T1, mYPet-YcgR-mCyPet (YcgR-biosensor), …; assay: FRET or BRET; in vitro, intramolecular FRET of 1.5 uM YcgR biosensor oversaturated with excess c-di-GMP (2 mM), titrated with gradient concentrations of motor protein; 25 C, SEC buffer; FRET/CFP ratio fitted to a logistic equation; conditions: remark: other sources report otherwise
[5] = target: B2; assay: as above; conditions: both partners purified
FliG [6] = target: T2, FliG; assay: FRET or BRET; in vitro, intramolecular FRET of 1.5 uM YcgR biosensor (mYPet-YcgR-mCyPet) titrated with 0-500 uM motor protein, without c-di-GMP; 25 C, SEC buffer (20 mM HEPES pH 7.5, 150 mM NaCl, 10% glycerol); FRET/CFP ratio fitted to a logistic equation; conditions: both partners purified
FliG [7] = target: T2, FliG; assay: FRET or BRET; in vitro, intramolecular FRET of 1.5 uM YcgR biosensor oversaturated with excess c-di-GMP (2 mM), titrated with gradient concentrations of motor protein; 25 C, SEC buffer; FRET/CFP ratio fitted to a logistic equation; conditions: both partners purified

Kd [1] [µM]	Kd [2] [µM]	Kd [3] [µM]	Kd [4] [µM]	Kd [5] [µM]	Kd (FliG [6]) [µM]	Kd (FliG [7]) [µM]	Binder
123	151 ± 10.2	114 ± 11.3	35.9	46.1 ± 2.2			B1
					139 ± 15.6	235 ± 35.4	B2
					143	107	B3
					141 ± 9.8	213	B4
